This experiment has as its target His-tagged T-cell immunoreceptor with Ig and ITIM domains (TIGIT) (UniProt Q495A1). Kind of experiment: biolayer interferometry, His-tagged TIGIT. For orientation: Biolayer interferometry detects binding as a change in optical thickness at a sensor tip.

Drawing on patent publication US20250296975A1, this text covers Kd for one molecule.

B1: anti-TIGIT antibody TIG1 (antibody, from another filing, V domains shown)
VH: DVQLVESGGGLVQPGGSRKLSCAASGFTFSNFGMHWVRQAPEKGLEWVAFISSGSSSIYYADTVKGRFTISRDNPKNTLFLQMTSLRSEDTAMYYCARMRLDYYAMDYWGQGTSVTVSS
VL: DVQITQSPSYLAASPGETITINCRASKSISKYLAWYQEKPGKTNKLLIYSGSTLQSGIPSRFSGSGSGTDFTLTISSLEPEDFAMYYCQQHNEYPWTFGGGTKLEIK
On to B1, for which the Kd (commonly the equilibrium constant for the complex coming apart) amounted to 3.12 nM.
